# Data published in patent US20140199714A1, “METHOD FOR DETECTING CANCER CELLS METASTASIZING INTO SENTINEL LYMPH NODE” (SHINSHU UNIVERSITY, priority 2008, published 2014).
# Assays:
# Type in all cases: cell-based
# ICAM-1 on human LECs [1] = assay: Immunohistochemical expression of ICAM-1 on cultured human LECs; conditions: 48 hrs. simultaneous treatment with 10^−7 or 10^−6M antagonist; n=5
# Description: (§1) Using an indirect immunohistochemical technique, the inventors examined the effects of the supernatants of culture medium of two kinds of carcinoma cells, MDA-MB-231 and MCF-7, on the expression of adhesion molecules such as E-selectin, P-selectin, vascular cell adhesion molecule (VCAM)-1, and intercellular adhesion molecule (ICAM)-1 on the human LECs. The carcinoma cells were plated in DMEM/F12 with 10% FBS, which was replaced the following day with DMEM/F12 with 3% FBS, and then collected after overnight culture. The collected solution was centrifuged at 2,000 rpm for 5 min. at 4° C. To examine the effects of the supernatants on the expression of the adhesion molecules on the human LECs, 1 mL of each collected solution was added to starvation culture medium, EBM-2 with 3% FBS of the human LECs, and then stimulated for 48 hrs. on the cells. In some experiments, the supernatant solutions at different concentrations (1/100 or 1/10,000 dilution) were constructed with appropriate volumes of DMEM/F12 with 3% FBS.
# Indirect immunohistochemical studies were performed on the cultured LECs seeded or glass slides coated with type I collagen, and then the cells were fixed with 3.3% formalin in phosphate-buffered saline solution (PBS), for 20 min. at room temperature. […]
# In some experiments, the effects of 10 ng/mL CCL2 on the immunohistochemical expression of ICAM-1 on the human LECs were also evaluated using the same procedure as that mentioned above after overnight neutralization of CCL2 in the starvation culture medium with a CCL2 specific antibody (1.0 μg/mL). […]
# To quantitatively examine the immunohistochemical data concerning the expression of ICAM-1 on the human LECs, the high-resolution digital microphotographs were processed using the SCION IMAGE analysis program. […]
# [2] = test system: attachment of carcinoma cells to human LECs; assay: In vitro human LEC attachment assay (ATP or MDA-MB-231 supernatant stimulation); conditions: p<0.01, n=5
# Description: The human LECs were plated to form a monolayer on type I collagen-coated 35 mm plates and incubated to confluence at 37° C. in 5% O2, 5% CO2, and 90% N2. The LECs were kept in serum-starved medium of EBM-2 with 3% FBS. Selected plates were treated with 10^−7M ATP or the supernatant of culture medium of MDA-MB-231 cells for 48 hrs. In some experiments, 10^−6M suramin was simultaneously added to the plates during 48 hrs. treatment with 10^−7M ATP or the culture medium supernatant of MDA-MB-231 cells.
# In some experiments, the plates were also treated with anti-human-ICAM-1 antibody (available from R&D Systems, US) for 30 min after 48 hrs. treatment with the culture medium supernatant of MDA-MB-231 or 10^−7M ATP. Breast carcinoma cells stained with PKH26 fluorescent dye (available from SIGMA, US) were then plated at 5×10^4 cells per plate and incubated for 30 min. at 37° C. Unbound cells were removed by aspiration and the plates washed with DMEM/F12 three times. Attachment was quantitated by counting cells under ×100 magnification using a microscope (available from Leica, Switzerland).
# ICAM-1 on human LECs [3] = assay: Immunohistochemical expression of ICAM-1 on cultured human LECs; conditions: for staining with ICAM-1 on human LECs: 48 hrs. treatment with 100 ng/mL IL-6, 100 ng/mL VEGF-A, or 500 ng/mL VEGF-C; for expression of ICAM-1 on human LECs: 18 hrs.-stimulation with 10 ng/mL chemokine
# [4] = test system: F-actin in LECs derived from human collecting lymph vessel; assay: Staining of cytoskeletal protein F-actin in human LECs; conditions: 10 ng/mL TNF-α; 1 ng/mL and 10 ng/mL IL-1β; 2 hrs. at 37° C.; vs negative control
# Description: LECs derived from human collecting lymph vessel, which were transplanted into a culture system, were plated on glass slide, and repeatedly subcultured to confluence. Stimulating factors of 10 ng/mL of tumor necrosis factor-α (TNF-α) of Catalog No. T-0157 (available from SIGMA, US), 1 ng/mL and 10 ng/mL of interleukin-1β (IL-1β) of Catalog No. 200-01B (available from PeproTech, US) were respectively dissolved in EBM-2 containing 3% FBS of Catalog No. CC-3156 (available from Sankyo Junyaku Co., Ltd., Japan) and added onto the cells, and then the cells were incubated for 2 hrs. at 37° C. They were fixed with 3.7% formalin. They were washed with PBS solution, and then still stood in PBS solution containing 0.1% TRITON X-100 of Catalog No. X-100 (available from SIGMA, US) for 5 min. Additionally they were washed with PBS solution, and then phalloidin-FITC antibody of Catalog No. P-5282 (available from SIGMA, US) diluted 500 times with PBS solution containing 0.1% BSA was added thereto. They were still stood for 2 hrs. at room temperature. After they were washed with PBS solution, and mounted in MOBI GLOW MOUNTING MEDIUM. Also negative control was similarly prepared except for using no stimulating factor. […] The LECs of the negative control without the stimulating factor indicate obscure green fluorescence, and there were few expression of F-actin.
# E-selectin on human LECs = assay: Immunohistochemical expression of E-selectin on cultured human LECs
# Description: as §1
# (§2) Indirect immunohistochemical studies were performed on the cultured LECs seeded or glass slides coated with type I collagen, and then the cells were fixed with 3.3% formalin in phosphate-buffered saline solution (PBS), for 20 min. at room temperature. The cells were washed three times with PBS, and then incubated overnight at 4° C. with primary polyclonal human antisera to E-selectin/CD62E (dilution 10 μg/mL, available from R&D Systems, US), P-selectin/CD62P (dilution 10 μg/mL, available from R&D Systems, US), VCAM-1/CD106 (dilution 10 μg/mL, available from R&D Systems, US), and ICAM-1/CD54 (dilution 10 μg/mL, available from R&D Systems, US).
# (§3) Before primary staining, the cultured cells were permeabilized with 0.1% TRITON-X. After washing three times in PBS, the cells were incubated for 1 hr. at room temperature with 1:100 diluted ALEXA FLUOR 488 donkey anti-mouse IgG (available from Invitrogen, US). The nuclei of cultured cells were counter-stained and mounted with PROLONG GOLD antifade reagent with 4′-6-diamidine-2-phenylindole (DAPI) (available from Molecular Probes, US), examined by a fluorescent microscope (Leica, Switzerland), and photographed.
# (§4) Immunohistochemistry was performed on the cultured human LECs or the fresh-frozen SLNs isolated from the breast cancer patients. In brief, the cultured LECs were fixed with 10% formalin in the phosphate-buffered saline solution (PBS) at room temperature. The cells were incubated for 4 hrs. at room temperature with primary polyclonal human antisera platelet-endothelial cell adhesion molecule (PECAM)-1 (dilution 1:100, available from BD Biosciences, US), lymphatic vessel endothelial hyaluronan receptor (LYVE)-1 (dilution 1:50, available from RELIATech, Germany), PROX-1 (dilution 1:50, available from AngioBio, US), podoplanin (dilution 1:50, available from AngioBio, US), vascular endothelium growth factor receptor 3 (VEGF R3) (dilution 1:50, available from Santa Cruz, US), E-selectin/CD62E (dilution 1:50, available from R&D systems, US), P-selectin/CD62P (dilution 1:50, available from R&D systems, US), vascular cell adhesion molecule (VCAM)-1/CD106 (dilution 1:50, available from R&D systems, US), and intercellular adhesion molecule (ICAM)-1/CD54 (dilution 1:50, available from R&D systems, US). Before the staining, permeabilization of the cultured cells with 0.1% TRITON-X was performed. Then, the cells were stained using the following antibodies: ALEXA FLUOR 488 chicken anti-rabbit IgG or ALEXA FLUOR 488 donkey anti-mouse IgG (available from Invitrogen, US). The nuclei of the cultured cells were counter-stained and mounted with ProLong Gold antifade reagent with 4′-6-diamidine-2-phenylindole (DAPI) (available from Molecular Probes, US). The cultured cells were examined by a fluorescent microscope (available from Leica, Germany) and photographed. […]
# P-selectin on human LECs = assay: Immunohistochemical expression of P-selectin on cultured human LECs; conditions: 48 hrs. treatment with 100 ng/mL IL-6, 100 ng/mL VEGF-A, or 500 ng/mL VEGF-C
# Description: as §1, §2
# Before primary staining, the cultured cells were permeabilized with 0.1% TRITON-X. After washing three times in PBS, the cells were incubated for 1 hr. at room temperature with 1:100 diluted ALEXA FLUOR 488 donkey anti-mouse IgG (available from Invitrogen, US). […]
# VCAM-1 on human LECs = assay: Immunohistochemical expression of VCAM-1 on cultured human LECs; conditions: for staining with VCAM-1 on human LECs: 48 hrs. treatment with 100 ng/mL IL-6, 100 ng/mL VEGF-A, or 500 ng/mL VEGF-C; for expression of VCAM-1 on human LECs: 18 hrs.-stimulation with 10 ng/mL chemokine
# Description: as §1, §2, §3, §4
# human LECs = assay: Proliferative ability of human LECs with lymphangiogenic factors
# [5] = 48 hrs. treatment with 100 ng/mL IL-6, 100 ng/mL VEGF-A, or 500 ng/mL VEGF-C
# [6] = 18 hrs.-stimulation with 10 ng/mL chemokine
molecule,measurement,setting,value
"C#CCn1c(=O)c2c(ncn2C)n(C)c1=O [DMPX, 3,7-dimethyl-1-propargyl xanthine]",effect on MDA-MB-231 supernatant-mediated expression of ICAM-1 on human LECs,ICAM-1 on human LECs [1],no significant effect
"CCCn1c(=O)c2[nH]c(C3CCCC3)nc2n(CCC)c1=O [DPCPX, 8-cyclopentyl-1,3-dipropylxanthine]",effect on MDA-MB-231 supernatant-mediated expression of ICAM-1 on human LECs,ICAM-1 on human LECs [1],no significant effect
Cc1ccc(C(=O)Nc2ccc(S(=O)(=O)O)c3cc(S(=O)(=O)O)cc(S(=O)(=O)O)c23)cc1NC(=O)c1cccc(NC(=O)Nc2cccc(C(=O)Nc3cc(C(=O)Nc4ccc(S(=O)(=O)O)c5cc(S(=O)(=O)O)cc(S(=O)(=O)O)c45)ccc3C)c2)c1 [suramin],effect on MDA-MB-231 supernatant-mediated expression of ICAM-1 on human LECs,ICAM-1 on human LECs [1],significant reduction
same,effect on MDA-MB-231 supernatant-mediated increase of attachment of carcinoma cells to human LECs,[2]; 48 hrs. simultaneous treatment with 10^−6M suramin,significant reduction
same,effect on ATP-mediated increased attachment of carcinoma cells to LECs,"[2]; simultaneous treatment with 10^−6M suramin, 10^−7M ATP 48 hrs.",significantly reduced
same,effect on ATP-mediated expression of ICAM-1 on LECs,"ICAM-1 on human LECs [3]; simultaneous treatment with 10^−7M or 10^−6M suramin, 10^−7M ATP, p<0.01, n=5",significant reduction
"IL-1β: interleukin-1β, stimulating factor",expression of F-actin (phalloidin-FITC fluorescence),[4],increase of expression of F-actin
IL-6: cytokine,expression of E-selectin on human LECs,E-selectin on human LECs; [5],No or little expression
same,staining by P-selectin antiserum on human LECs,P-selectin on human LECs,strongly stained
same,staining with VCAM-1 on human LECs,VCAM-1 on human LECs,Slight staining
same,staining with ICAM-1 on human LECs,ICAM-1 on human LECs [3],Slight staining
VEGF,proliferative ability of the LECs,human LECs,Sthenia of proliferative ability
"basic-FGF: basic fibroblast growth factor, lymphangiogenic factor",proliferative ability of the LECs,human LECs,Sthenia of proliferative ability
"VEGF-C: growth factor; lymphangiogenic factor (protein, UniProt P49767 112-227, looked up) Vascular endothelial growth …: AHYNTEILKSIDNEWRKTQCMPREVCIDVGKEFGVATNTFFKPPCVSVYRCGGCCNSEGLQCMNTSTSYLSKTLFEITVPLSQGPKPVTISFANHTSCRCMSKLDVYRQVHSIIRR",expression of E-selectin on human LECs,E-selectin on human LECs; [5],No or little expression
same,staining by P-selectin antiserum on human LECs,P-selectin on human LECs,strongly stained
same,staining with VCAM-1 on human LECs,VCAM-1 on human LECs,Slight staining
same,proliferative ability of the LECs,human LECs,Sthenia of proliferative ability
same,staining with ICAM-1 on human LECs,ICAM-1 on human LECs [3],Slight staining
"CCL21: chemokine (protein, UniProt O00585 24-134, looked up) C-C motif chemokine 21: SDGGAQDCCLKYSQRKIPAKVVRSYRKQEPSLGCSIPAILFLPRKRSQAELCADPKELWVQQLMQHLDKTPSPQKPAQGCRKDRGASKTGKKGKGSKGCKRTERSQTPKGP",expression of E-selectin on human LECs,E-selectin on human LECs; [6],Little or no expression
same,expression of VCAM-1 on human LECs,VCAM-1 on human LECs,Little or no expression
same,expression of ICAM-1 on human LECs,ICAM-1 on human LECs [3],slight staining
"CCL1: chemokine (protein, UniProt P22362 24-96, looked up) C-C motif chemokine 1: KSMQVPFSRCCFSFAEQEIPLRAILCYRNTSSICSNEGLIFKLKRGKEACALDTVGWVQRHRKMLRHCPSKRK",expression of E-selectin on human LECs,E-selectin on human LECs; [6],Little or no expression
same,expression of VCAM-1 on human LECs,VCAM-1 on human LECs,Little or no expression
same,expression of ICAM-1 on human LECs,ICAM-1 on human LECs [3],slight staining
"CCL12: chemokine (protein, UniProt Q62401 23-104, looked up) C-C motif chemokine 12: GPDAVSTPVTCCYNVVKQKIHVRKLKSYRRITSSQCPREAVIFRTILDKEICADPKEKWVKNSINHLDKTSQTFILEPSCLG",expression of E-selectin on human LECs,E-selectin on human LECs; [6],Little or no expression
same,expression of VCAM-1 on human LECs,VCAM-1 on human LECs,Little or no expression
same,expression of ICAM-1 on human LECs,ICAM-1 on human LECs [3],slight staining
